The values that follow come from paper PMC8860565, “Molecular Insights into How the Dimetal Center in Dihydropyrimidinase Can Bind the Thymine Antagonist 5-Aminouracil: A Different Binding Mode from the Anticancer Drug 5-Fluorouracil” (Bioinorganic Chemistry and Applications, 2022).

This data set concerns the molecule itself. Briefly: crystal structure; hanging drop vapor diffusion, room temperature, 16% PEG 8000, 100 mM HEPES, 200 mM calcium acetate, 200 μM 5-AU, pH 7.5; two monomers in the asymmetric unit.

B1: Pseudomonas aeruginosa dihydropyrimidinase (enzyme)
chain: MSLLIRGATVVTHEESYRADVLCANGLIQAIGENLETPSGCDVLDGGGQYLMPGGIDPHTHMQLPFMGTVASEDFFSGTAAGLAGGTTSIIDFVIPNPRQSLLEAFHTWRGWAQKSAADYGFHVAITWWSDEVAREMGELVAQHGVNSFKHFMAYKNAIMAADDTLVASFERCLELGAVPTVHAENGELVFHLQQKLLAQGLTGPEAHPLSRPPQVEGEAASRAIRIAETLGTPLYLVHISSREALDEIAYARAKGQPVYGEVLAGHLLLDDSVYRHPDWATAAGYVMSPPFRPVEHQEALWRGLQSGNLHTTATDHCCFCAEQKAMGRDDFSKIPNGTAGIEDRMALLWDAGVNSGRLSMHEFVALTSTNTAKIFNLFPRKGAIRVGADADLVLWDPQGSRTLSAATHHQRVDFNIFEGRTVRGIPSHTISQGKLLWAAGDLRAEPGAGRYVERPAYPSVYEVLGRRAERQRPVAVER
modifications: carbamylated Lys150 (Kcx150)
notes: dihydropyrimidinase of Pseudomonas aeruginosa (PaDHPase), wild type; Binuclear Zn centre (Znα, Znβ) in each monomer; also called PaDHPase; DHPase
As to B1, the binding result was “binds”.
